± gives the uncertainty stated by the source.
Test: self-splicing fitness, log relative to wild type (ln ratio); higher = more splicing; Tetrahymena group I intron in knt gene, E. coli kanamycin selection, DiMSum; sequences stand for … in CUCUCU…GGAGGGAAAAGUUAUCAGGCAUGCACCUGGUAGCUAGUCUUUAAACCAAUAGAUUGCAUCGGUUUAAAAGGCAAGACCGUCAAAUUGCGGGAAAGGGGUCAACAGCCGUUCAGUACCAAGUCUCAGGGGAAACUUUGAGAUGGCCUUGCAAAGGGUAUGGUAAUAAGCUGACGGACAUGGUCCUAACCACGCAGCCAAGUCCUAAGUCAACAGAUCUUCUGUUGAUAUGGAUGCAGUUCACAGACUAAAUGUCGGUCGGGGAAGAUGUAUUCUUCUCAUAAGAUAUAGUCGGACCUCUCCUUAAUGGGAGCUAGCGGAUGAAGUGAUGCAACACUGGAGCCGCUGGGAACUAAUUUGUAUGCGAAAGUAUAUUGAUUAGUUUUGGAGUACUCGUGGUCG
How it was run: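 A randomised library covering all eight P1ex-region intron nucleotides was built with the intron in the knt kanamycin-resistance gene on pET-22b(+) and held in E. coli BL21(DE3). Cells were grown overnight at 37°C or 30°C on LB agar, with or without 25 μg/mL kanamycin, plus 100 μg/mL carbenicillin, 50 μM IPTG and 0.2% rhamnose, and pooled colonies were amplicon-sequenced on an Illumina HiSeq 2500. DiMSum fitness is the error-weighted combination of wild-type-normalised replicate fold changes, kanamycin versus none.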

Sequence | self-splicing fitness (ln) (30 °C) | self-splicing fitness (ln) (37 °C)
UAGCAGCAAUAUUACGGCGC | -2.08 ± 0.23 | 0.611 ± 0.23
UGUGAGCAAUAUUACGGUGA | -2.19 ± 0.31 | -1.67 ± 0.2
UCAGAGCAAUAUUACGUUGA | -2.33 ± 0.12 | -1.54 ± 0.14
UCCAAGCAAUAUUACGUUUG | -3.5 ± 0.15 | -2.97 ± 0.2
UUGAAGCAAUAUUACGCCUU | -2.96 ± 0.13 | -1.53 ± 0.14
UGGCAGCAAUAUUACGGUCC | -0.382 ± 0.16 | 0.88 ± 0.13
CCCGAGCAAUAUUACGCUCU |  | -2.7 ± 0.29
CCACAGCAAUAUUACGAGAG | -2.41 ± 0.067 | -1.25 ± 0.065
GACGAGCAAUAUUACGUUAU | -4.17 ± 0.39 | -2.36 ± 0.31
CGAAAGCAAUAUUACGUUCG | -3.44 ± 0.14 | -2.62 ± 0.15
UUGUAGCAAUAUUACGCAAU | -2.98 ± 0.34 | 
UGCCAGCAAUAUUACGCGAA | -1.33 ± 0.11 | 0.357 ± 0.11
GCACAGCAAUAUUACGUUCA | -0.911 ± 0.054 | -0.855 ± 0.062
AUUGAGCAAUAUUACGAAUC | -2.93 ± 0.4 | 
UUUUAGCAAUAUUACGGUAU | -2.87 ± 0.32 | -3.11 ± 0.47
GAAUAGCAAUAUUACGCAGA | -2.53 ± 0.16 | -1.34 ± 0.14
UUUUAGCAAUAUUACGGGAG | -0.728 ± 0.16 | -1.79 ± 0.29
ACAGAGCAAUAUUACGGUGC | -3.86 ± 0.44 | -2.09 ± 0.31
GAGCAGCAAUAUUACGUCGA | -1.51 ± 0.12 | -0.741 ± 0.12
GCCCAGCAAUAUUACGCUGA | -1.08 ± 0.13 | -0.784 ± 0.18
CACAAGCAAUAUUACGGUUG | -2.5 ± 0.1 | -1.59 ± 0.12
GUGUAGCAAUAUUACGAUGC | -1.85 ± 0.16 | -0.552 ± 0.18
UAUGAGCAAUAUUACGUAUA | -2 ± 0.4 | -1.02 ± 0.28
GUUAAGCAAUAUUACGCGCC | -2.44 ± 0.2 | -1.56 ± 0.16
AGCGAGCAAUAUUACGUUAG | -2.38 ± 0.11 | -3.18 ± 0.27
UAAGAGCAAUAUUACGAGUU | -3.16 ± 0.14 | -2.87 ± 0.23
GACUAGCAAUAUUACGAUAU | -0.566 ± 0.075 | -0.0805 ± 0.1

Sequence | self-splicing fitness (ln) (30 °C) | self-splicing fitness (ln) (37 °C)
GUCUAGCAAUAUUACGCAGG | -3.11 ± 0.3 | -3.31 ± 0.37
CGUCAGCAAUAUUACGUCAU | -3.73 ± 0.19 | -2.59 ± 0.16
GUUGAGCAAUAUUACGGCAA | -1.78 ± 0.42 | -0.283 ± 0.48
GCUGAGCAAUAUUACGACAG | -1.05 ± 0.31 | 
GCUCAGCAAUAUUACGAGAA | -0.468 ± 0.12 | 0.0758 ± 0.099
UGGCAGCAAUAUUACGCGAA | -0.273 ± 0.088 | -0.139 ± 0.1
AAUCAGCAAUAUUACGACCA | -0.116 ± 0.1 | 0.885 ± 0.12
GAAUAGCAAUAUUACGGAGA | -3.11 ± 0.47 | -2.56 ± 0.45
CACGAGCAAUAUUACGUAUU | -4.05 ± 0.17 | -2.48 ± 0.13
ACCGAGCAAUAUUACGCCAU | -4.46 ± 0.36 | -2.05 ± 0.22
AGGAAGCAAUAUUACGCCCG | -0.151 ± 0.17 | -0.394 ± 0.2
UACUAGCAAUAUUACGACUU | -1.27 ± 0.08 | -0.271 ± 0.11
AUUAAGCAAUAUUACGUGGG | -3.45 ± 0.17 | -2.44 ± 0.16
CGAAAGCAAUAUUACGGCGG | -0.187 ± 0.067 | 0.456 ± 0.093
UGGUAGCAAUAUUACGUCAC |  | -1.37 ± 0.45
AUUGAGCAAUAUUACGUGAC |  | -1.61 ± 0.45
CGCGAGCAAUAUUACGCACG |  | -2.14 ± 0.46
AUCGAGCAAUAUUACGUCGC | -2.55 ± 0.28 | -2.21 ± 0.29
CGCUAGCAAUAUUACGCAGU | -3.63 ± 0.2 | -2.35 ± 0.2
UGAGAGCAAUAUUACGCAGC | -3.13 ± 0.23 | -2.16 ± 0.3
GGAUAGCAAUAUUACGUGAG | -1.33 ± 0.11 | 0.321 ± 0.1
AGACAGCAAUAUUACGUGCC | -0.679 ± 0.12 | -0.815 ± 0.17
CGGUAGCAAUAUUACGCCCU | 0.24 ± 0.19 | 0.785 ± 0.29
AACUAGCAAUAUUACGCAGC | -3.32 ± 0.25 | -2.98 ± 0.43
CCAAAGCAAUAUUACGACGA | -3.11 ± 0.29 | -0.0538 ± 0.26
GGUUAGCAAUAUUACGGGAU | -3.13 ± 0.26 | -1.4 ± 0.24
UCAAAGCAAUAUUACGUUGC | -3.48 ± 0.19 | -3.23 ± 0.26

Sequence | self-splicing fitness (ln) (30 °C) | self-splicing fitness (ln) (37 °C)
GGAUAGCAAUAUUACGAAUC | -1.72 ± 0.088 | -1.8 ± 0.12
GGUAAGCAAUAUUACGGACC | -0.973 ± 0.43 | 
GAACAGCAAUAUUACGCUUC | -4.44 ± 0.19 | -3.19 ± 0.2
GUAGAGCAAUAUUACGCCGG | -1.41 ± 0.21 | -0.336 ± 0.47
CUCGAGCAAUAUUACGUUUC | -1.78 ± 0.29 | -1.25 ± 0.25
GUGAAGCAAUAUUACGCUCG | -1.69 ± 0.11 | -0.267 ± 0.13
GCCAAGCAAUAUUACGCGUA | -0.871 ± 0.089 | -0.13 ± 0.089
CAGGAGCAAUAUUACGUCCU | -2.72 ± 0.24 | -2.08 ± 0.24
GAGUAGCAAUAUUACGCCCU | -0.812 ± 0.24 | -0.124 ± 0.23
GACGAGCAAUAUUACGGGGC | -2.83 ± 0.13 | -2.25 ± 0.16
UCCCAGCAAUAUUACGAGUU | -3.85 ± 0.2 | -2.45 ± 0.15
AUAGAGCAAUAUUACGAAAG | -3.24 ± 0.2 | -2.05 ± 0.22
CGGGAGCAAUAUUACGGAUG | -3.1 ± 0.23 | -2.75 ± 0.26
CCUCAGCAAUAUUACGUUGA | -3.03 ± 0.14 | -2.28 ± 0.14
AUUCAGCAAUAUUACGUGGG | -2.63 ± 0.11 | -1.87 ± 0.1
AUCGAGCAAUAUUACGCACA | -2.46 ± 0.16 | -0.76 ± 0.11
GGGUAGCAAUAUUACGCAGU | -1.34 ± 0.16 | -1.02 ± 0.11
GGAUAGCAAUAUUACGGAUU | -1.79 ± 0.12 | -0.787 ± 0.12
AGCAAGCAAUAUUACGGCCU | -0.383 ± 0.094 | 0.167 ± 0.13
AGACAGCAAUAUUACGGGGC | -3.97 ± 0.23 | -1.69 ± 0.17
CUGUAGCAAUAUUACGGACG | -1.53 ± 0.12 | -0.319 ± 0.15
AGAUAGCAAUAUUACGUAAC | -3.68 ± 0.35 | -2.01 ± 0.23
UUAGAGCAAUAUUACGAAAC | -2.21 ± 0.41 | 
AUGUAGCAAUAUUACGUGUU | -2.4 ± 0.12 | -1.08 ± 0.14
ACACAGCAAUAUUACGAUAU | -1.63 ± 0.08 | -1.62 ± 0.098

Source: the supplement of paper PMC7877785
